# Data from article PMC10679996.
# Target: HSC70 (UniProt P11142)
# Assay: anti-FLAG co-IP, Western blot
# Conditions: reference: wild type; sites T290
substance,measurement,value
PD-L1 (from UniProt Q9NZQ7) T290A,binding against the reference,weaker
